Data on 1 protein can be found in ChEMBL document CHEMBL1221387, “Prenylflavonoids from Glycyrrhiza uralensis and their protein tyrosine phosphatase-1B inhibitory activities” (Bioorg Med Chem Lett, 2010).

The Km is the concentration of substrate that gives half-maximal velocity.

Substrate in data set [1]: COc1c(CC=C(C)C)c(O)cc(O)c1-c1oc2cc(O)ccc2c1C
The note with it: Homo sapiens; 10 uM.
Description: Competitive inhibition of human recombinant PTP1B at 10 uM by Lineweaver-Burke plot analysis

Substrate in data set [2]: COc1c(CC=C(C)C)c(O)cc(O)c1-c1oc2cc(O)ccc2c1C
The following applies: Homo sapiens; 20 uM.
Description: Competitive inhibition of human recombinant PTP1B at 20 uM by Lineweaver-Burke plot analysis

Substrate in data set [3]: COc1c(CC=C(C)C)c(O)cc(O)c1-c1oc2cc(O)ccc2c1C
Description: Competitive inhibition of human recombinant PTP1B at 30 uM by Lineweaver-Burke plot analysis
The note with it: Homo sapiens; 30 uM.

B1: Tyrosine-protein phosphatase non-receptor type 1 (Homo sapiens), P18031 (protein)
chain: MEMEKEFEQIDKSGSWAAIYQDIRHEASDFPCRVAKLPKNKNRNRYRDVSPFDHSRIKLHQEDNDYINASLIKMEEAQRSYILTQGPLPNTCGHFWEMVWEQKSRGVVMLNRVMEKGSLKCAQYWPQKEEKEMIFEDTNLKLTLISEDIKSYYTVRQLELENLTTQETREILHFHYTTWPDFGVPESPASFLNFLFKVRESGSLSPEHGPVVVHCSAGIGRSGTFCLADTCLLLMDKRKDPSSVDIKKVLLEMRKFRMGLIQTADQLRFSYLAVIEGAKFIMGDSSVQDQWKELSHEDLEPPPEHIPPPPRPPKRILEPHNGKCREFFPNHQWVKEETQEDKDCPIKEEKGSPLNAAPYGIESMSQDTEVRSRVVGGSLRGAQAASPAKGEPSLPEKDEDHALSYWKPFLVNMCVATVLTAGAYLCYRFLFNSNT
As to B1, the Km turned out to be 3.5 µM in data set [1], 4.2 µM in data set [2] and 5.5 µM in data set [3].
